# Measured values from paper PMC3643951 (PLoS ONE, 2013).
# T1: S100A1 protein, dansyl-labelled (human, UniProt P23297 1-94, dansyl (DNS) label from dansyl chloride, site not stated)
# T1 construct: human S100A1; cDNA cloned into pET28b; No tag is mentioned; purification was by Phenyl Sepharose; also called DNS-S100A1; Ca2+-S100A1; source: E. coli BL21, purified (Phenyl Sepharose CL4B, Superdex 75), labelled with dansyl chloride
# T1 sequence (looked up): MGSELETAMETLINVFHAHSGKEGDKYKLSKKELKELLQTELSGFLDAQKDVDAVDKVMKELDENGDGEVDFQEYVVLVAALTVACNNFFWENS
# Target: T1, S100A1 protein, dansyl-labelled
# Experiment: fluorescence polarisation; steady-state fluorescence anisotropy; TRPC6 construct titrated into DNS-S100A1 solution (232 µM as printed) in presence of calcium ions; excitation 340 nm, emission 520 nm
# Settings: both partners purified
row,Binder,Kd
1,"TRPC6(801–878) K856A (domain or fragment, rat, UniProt Q99N78 801-878, looked up, C-terminal part of rat TRPC6, amino acids 801-878, with K856A; Same construct as m1 (pET42b) with the point mutation; source: E. coli Rosetta, purified (Chelating Sepharose Fast Flow, Superdex 75)) NKRNEEKKFGILGSHEDLSKFSLDRNQLAHNKQSSTRSSEDFHLNSFSNPPRQYQAIMKRLIKRYVLQAQIDKESDEV",760 nM
2,"TRPC6(801–878) R864A (domain or fragment, rat, UniProt Q99N78 801-878, looked up, C-terminal part of rat TRPC6, amino acids 801-878, with R864A; Same construct as m1 (pET42b) with the point mutation; source: E. coli Rosetta, purified (Chelating Sepharose Fast Flow, Superdex 75)) NKRNEEKKFGILGSHEDLSKFSLDRNQLAHNKQSSTRSSEDFHLNSFSNPPRQYQKIMKRLIKAYVLQAQIDKESDEV",920 nM
3,"TRPC6(801–878) R852A/K859A/R860A (domain or fragment, rat, UniProt Q99N78 801-878, looked up, C-terminal part of rat TRPC6, amino acids 801-878, with R852A, K859A and R860A; Same construct as m1 (pET42b) with the triple substitution; also called triple mutation Arg852/Lys859/Arg860; source: E. coli Rosetta, purified (Chelating Sepharose Fast Flow, Superdex 75)) NKRNEEKKFGILGSHEDLSKFSLDRNQLAHNKQSSTRSSEDFHLNSFSNPPAQYQKIMAALIKRYVLQAQIDKESDEV",2620 nM

# The remaining binders from weak to strong by Kd, led by results:
row,Kd,Binder
1,480 nM,"TRPC6(801–878) R852A (domain or fragment, rat, UniProt Q99N78 801-878, looked up, C-terminal part of rat TRPC6, amino acids 801-878, with R852A; Same construct as m1 (pET42b) with the point mutation; also called TRPC6 single mutant R852A; source: E. coli Rosetta, purified (Chelating Sepharose Fast Flow, Superdex 75)) NKRNEEKKFGILGSHEDLSKFSLDRNQLAHNKQSSTRSSEDFHLNSFSNPPAQYQKIMKRLIKRYVLQAQIDKESDEV"
2,400 nM,"TRPC6(801–878) K859A/R860A/R864A (domain or fragment, rat, UniProt Q99N78 801-878, looked up, C-terminal part of rat TRPC6, amino acids 801-878, with K859A, R860A and R864A; Same construct as m1 (pET42b) with the triple substitution; also called triple substitution Lys859/Arg860/Arg864; source: E. coli Rosetta, purified (Chelating Sepharose Fast Flow, Superdex 75)) NKRNEEKKFGILGSHEDLSKFSLDRNQLAHNKQSSTRSSEDFHLNSFSNPPRQYQKIMAALIKAYVLQAQIDKESDEV"
